This test concerns the target T1, C. elegans GluClβWT subunit (GLC-2) (C. elegans) (UniProt Q17328).
T1 sequence: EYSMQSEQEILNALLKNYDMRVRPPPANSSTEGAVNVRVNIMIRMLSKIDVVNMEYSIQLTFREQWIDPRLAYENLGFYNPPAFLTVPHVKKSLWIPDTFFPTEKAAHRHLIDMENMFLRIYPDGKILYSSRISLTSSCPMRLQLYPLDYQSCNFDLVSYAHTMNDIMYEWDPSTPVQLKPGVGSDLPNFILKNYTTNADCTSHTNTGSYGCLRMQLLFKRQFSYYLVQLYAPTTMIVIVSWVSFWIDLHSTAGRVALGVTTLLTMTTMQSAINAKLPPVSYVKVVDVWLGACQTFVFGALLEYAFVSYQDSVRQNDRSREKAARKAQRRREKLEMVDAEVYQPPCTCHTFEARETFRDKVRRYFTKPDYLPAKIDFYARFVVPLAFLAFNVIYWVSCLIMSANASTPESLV

Residue numbers refer to the chain shown, from its start. Numbers in names are those of the source.

B1: C. elegans GluClα (GLC-1) subunit, P192M (receptor)
chain: QQARTKSQDIFEDDNDNGTTTLESLARLTSPIHIPIEQPQTSDSKILAHLFTSGYDFRVRPPTDNGGPVVVSVNMLLRTISKIDVVNMEYSAQLTLRESWIDKRLSYGVKGDGQPDFVILTVGHQIWMPDTFFPNEKQAYKHTIDKPNVLIRIHNDGTVLYSVRISLVLSCMMYLQYYPMDVQQCSIDLASYAYTTKDIEYLWKEHSPLQLKVGLSSSLPSFQLTNTSTTYCTSVTNTGIYSCLRTTIQLKREFSFYLLQLYIPSCMLVIVSWVSFWFDRTAIPARVTLGVTTLLTMTAQSAGINSQLPPVSYIKAIDVWIGACMTFIFCALLEFALVNHIANKQGVERKARTEREKAEIPLLQNLHNDVPTKVFNQEEKVRTVPLNRRQMNSFLNLLETKTEWNDISKRVDLISRALFPVLFFVFNILYWSRFGQQNVLF
In turn, B1 gave a whole-cell current amplitude in response to the Glu-EC50 concentration, CHO cells co-transfected with both subunits, +60 mV of 3.2 nA.

B2: C. elegans GluClα (GLC-1) subunit, SSS→GSD (positions 236–238) (receptor)
chain: B1 chain with M172P, S216G, S218D
As to B2, the whole-cell current amplitude in response to the Glu-EC50 concentration, CHO cells co-transfected with both subunits, +60 mV came out at 2.9 nA.

B3: C. elegans GluClα (GLC-1) subunit, F276A (receptor)
chain: B1 chain with M172P, F256A
Molecule B3 returned a whole-cell current amplitude in response to the Glu-EC50 concentration, CHO cells co-transfected with both subunits, +60 mV of 3.1 nA.

B4: C. elegans GluClα (GLC-1) subunit, E273R (receptor)
chain: B1 chain with M172P, E253R
On to B4, for which the whole-cell current amplitude in response to the Glu-EC50 concentration, CHO cells co-transfected with both subunits, +60 mV came out at 2.2 nA.

B5: C. elegans GluClα (GLC-1) subunit, Y194R (receptor)
chain: B1 chain with M172P, Y174R
Consider B5, for which the whole-cell current amplitude in response to the Glu-EC50 concentration, CHO cells co-transfected with both subunits, +60 mV came out at 5.9 nA.

The values are drawn from article PMC5382172 (Frontiers in Molecular Neuroscience, 2017).
